Results published in patent CN118525034A (INTERVET INT BV, dated 2024).
Changes are numbered by the printed parent chain. One block for each molecule: values may come before it.

How the values were obtained:
[1] = biological target: 犬IL-31RA ECD-10His (犬 (canine)); test: ELISA, IL-31RA ECD coated at 1 µg/mL, biotinylated canine IL-31 titrated, HRP-streptavidin
[2] = biological target: T1, 犬IL-31RA ECD-10His (犬 (canine)); test: Octet BLI, biotinylated canine IL-31RA on SA biosensor, mAb 100-3.13 nM, 1:1 model
T1 chain: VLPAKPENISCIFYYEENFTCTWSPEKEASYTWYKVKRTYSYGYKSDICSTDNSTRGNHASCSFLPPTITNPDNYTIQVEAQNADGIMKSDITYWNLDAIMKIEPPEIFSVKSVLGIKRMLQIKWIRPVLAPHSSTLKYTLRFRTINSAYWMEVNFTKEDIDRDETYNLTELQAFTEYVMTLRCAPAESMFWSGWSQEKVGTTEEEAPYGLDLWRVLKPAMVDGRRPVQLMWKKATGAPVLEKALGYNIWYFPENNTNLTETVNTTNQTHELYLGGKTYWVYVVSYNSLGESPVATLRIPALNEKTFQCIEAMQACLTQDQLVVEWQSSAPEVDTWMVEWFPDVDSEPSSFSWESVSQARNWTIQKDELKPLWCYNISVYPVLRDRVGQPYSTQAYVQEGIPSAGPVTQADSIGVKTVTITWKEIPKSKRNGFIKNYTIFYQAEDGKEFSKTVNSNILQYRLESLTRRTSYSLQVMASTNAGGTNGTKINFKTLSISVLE

[3] = biological target: T1, 犬IL-31RA ECD-10His; test: Octet BLI, biotinylated canine IL-31RA on SA biosensor
[4] = biological target: T1, 犬IL-31RA ECD-10His; test: Octet BLI; upper end of the range, tied to 85C10 by Table 2
[5] = biological target: T1, 犬IL-31RA ECD-10His; test: Octet BLI; lower end of the range, tied to 224G3 by Table 2

Molecule: 犬IL-31 (ligand)
EC50 [1]: 0.55 ng/mL

B1: 65G9 (antibody, V domains shown)
VH: EFQLQQSGPELVKPGASVKISCKASGYSFTDYGMNWLKQINGKSLEWIAIINPNYGTASSNPKFKDKATLTVDHSSSTAYMQLSSLTSEDSAVYYCARAFDGYYFYWYFDVWGTGTTVTVSS
VL: SIVMTQTPKFLLVSAGDRVTITCKASQSVTNDVTWYQQKPGQSPKLLIFSASNRYTGVPDRFTGSGYGTDFTFTISTVQAEDLAVYFCQQDYSSPWTFGGGTKLEIK
Kd [2]: 0.451 nM
koff [2]: 0.000355 s⁻¹
kon [2]: 787000 M⁻¹ s⁻¹

B2: 51F8 (antibody, V domains shown)
VH: EVQLQQSVAELVRPGASVKLSCTASGFNIKNTFIHWVKQRPEQGLEWIGRIDPANGNTKYAPKFQGRATLTADTSSNTAYLQLSSLTSEDTAIYYCARYYYVSSYFDVWGTGTTVTVSS
VL: B1 VL with F49Y, S50Y, W96F, G100S
Kd [3]: ~0.2 nM
Kd [2]: 0.207 nM
koff [2]: 0.000141 s⁻¹
kon [2]: 684000 M⁻¹ s⁻¹

B4: 85C10 (antibody, V domains shown)
VH: EFQLQQSGPELVKPGASVKISCKASGYSFTDYSINWVKQSNGKSLEWIGVINPNYGTSSHNQKFKGKATMTVDQSSSTAYMQLNSLTSEDSAVYYCARALDDYYFYWYFDVWGIGTTVTVSS
VL: DVVMTQTPLSLPVSLGDQASISCRSSQSLIHTNGNTYLHWYLQKPGQSPKLLIYKVSNRFSGVPDRFSGSGSGTDFTLKISRLEAEDLGVYFCSQSTHVPLTFGAGTKLELR
Kd [4]: 0.85 nM
Kd [2]: 0.851 nM
koff [2]: 0.000363 s⁻¹
kon [2]: 427000 M⁻¹ s⁻¹

Further molecules by falling Kd [2], results first:

Kd [2]: 0.131 nM
koff [2]: 4.87e-05 s⁻¹
kon [2]: 370000 M⁻¹ s⁻¹
B3: 209G5 (antibody, V domains shown)
VH: B2 VH with F33Y, I34M, Q39E, T58S, R67K, L70I, A72T, Y105H
VL: DIKMTQSPSSMYASLGERVTITCKASQDINSYLNWFQQKPGKSPKTLIYRADRLVDGVPSRFSGSGSGQDYSLTISSLEYEDMGIYYCLQYDEFPLTFGDGTKLELN

Kd [3]: ~0.07 nM
Kd [2]: 0.0698 nM
koff [2]: 4.63e-05 s⁻¹
kon [2]: 664000 M⁻¹ s⁻¹
B5: 218D9 (antibody, V domains shown)
VH: QVTLKESGPGILQPSQTLSLTCSFSGFSLSTFGRGVGWIRQPSGKGLDWLTHIWWDDDKYYNPALKSRLTISKDTSKNQVFLKIANVDTADTATYYCARIAGGLRRAPYAMDSWGQGTSVTVSS
VL: B4 VL with I30V, L83V, S96T, R112K

Kd [5]: 1 pM
Kd [2]: 0.000964 nM
koff [2]: 1.08e-06 s⁻¹
kon [2]: 1.12e+06 M⁻¹ s⁻¹
B6: 224G3 (antibody, V domains shown)
VH: EVQLVESGGDLVKPGGSLKLSCAASGFTFSSYGMSWVRQTPDKRLEWVATISNGGSYTYYPDSVKGRFTISRDNAKNTLYMQMSSLKSEDTAMYYCARNEPPDYWGQGTSVTVSS
VL: DIQMTQSPASLSVSVGETVTITCRASENIYSSLAWYQQKQGKSPQLLVYAATNLADGVPSRFSGSGSGTQYSLKINSLQSEDSGNYYCQHFRDTPPTFGGGTKLEIK
